Patent publication US20200354411A1, “Chimeric Molecule for Targeting c-Myc in Cells” (priority 2017, published 2020)

Target: c-Myc (UniProt P01106)
Assay: cell-based or functional assay

Chain of c-Myc (P01106 whole entry): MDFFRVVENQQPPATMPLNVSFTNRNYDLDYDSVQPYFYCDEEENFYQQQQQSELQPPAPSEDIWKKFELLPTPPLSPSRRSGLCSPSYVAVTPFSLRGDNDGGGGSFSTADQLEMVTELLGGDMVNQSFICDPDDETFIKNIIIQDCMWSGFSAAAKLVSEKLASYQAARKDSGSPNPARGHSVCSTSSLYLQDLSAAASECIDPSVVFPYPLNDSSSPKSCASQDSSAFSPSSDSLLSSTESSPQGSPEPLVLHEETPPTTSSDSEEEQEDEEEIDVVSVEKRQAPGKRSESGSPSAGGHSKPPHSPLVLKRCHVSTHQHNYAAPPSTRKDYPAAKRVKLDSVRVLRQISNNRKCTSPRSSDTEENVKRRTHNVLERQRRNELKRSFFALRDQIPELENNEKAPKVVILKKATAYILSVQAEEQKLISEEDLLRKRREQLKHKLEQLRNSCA

Substance | decrease in Myc reporter activity at 400 µM | luciferase controlled by E-Box, A431 cells, 6 hours | decrease in Myc reporter activity at 150 µM
Int-H1 (Antenapedia cell targeting peptide fused to H1) | < 75% | 200 µM | –
CAD-H1 (Cadherin cell targeting peptide fused to H1) | – | 75 µM | < 75%
Tat-H1 (TAT cell targeting peptide fused to H1) | – | 500 µM | –
